Experiments:
MMP-13 (collagenase 3) = MMP-13 (collagenase 3) (UniProt P45452 20-471, limits assumed); test: cell-based or functional assay
[1] = target: MMP-8 (neutrophil collagenase, collagenase 2) (UniProt P22894 21-467, limits assumed); test: cell-based or functional assay
Sequence of MMP-8 (neutrophil collagenase, collagenase 2) (P22894 21-467 limits assumed): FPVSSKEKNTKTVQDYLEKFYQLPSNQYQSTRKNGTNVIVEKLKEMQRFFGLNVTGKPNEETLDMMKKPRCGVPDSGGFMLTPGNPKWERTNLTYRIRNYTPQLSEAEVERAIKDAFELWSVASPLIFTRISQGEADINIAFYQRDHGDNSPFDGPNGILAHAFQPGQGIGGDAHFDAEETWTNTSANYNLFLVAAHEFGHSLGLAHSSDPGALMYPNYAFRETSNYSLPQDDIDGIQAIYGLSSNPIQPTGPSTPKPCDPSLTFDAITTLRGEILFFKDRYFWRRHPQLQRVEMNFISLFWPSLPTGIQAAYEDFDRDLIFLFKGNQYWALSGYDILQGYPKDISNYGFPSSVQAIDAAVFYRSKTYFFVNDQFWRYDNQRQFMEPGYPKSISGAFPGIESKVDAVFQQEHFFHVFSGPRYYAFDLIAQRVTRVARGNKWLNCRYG

IC50, inhibition of enzyme activity (fluorogenic substrate) (MMP-13 (collagenase 3)) | IC50, inhibition of enzyme activity (fluorogenic substrate) [1] | Binder
~10 µM | ~50 µM | phosphinate-containing triple-helical peptide-amphiphile f3, C6-(Gly-Pro-Hyp)5-Gly-Pro-Pro-[Gly~Val]-Val-Gly-Glu-Gln-(Gly-Pro-Hyp)5-NH2 (N-terminal hexanoic acid (C6); Hyp (4-hydroxyproline) at 3, 6, 9, 12, 15, 27, 30, 33, 36, 39 (written P in letters); Gly19-Val20 peptide bond replaced by phosphinate psi{PO2H-CH2}; hypothesised phosphino Gly-(D)Val analog; C-terminal amide) peptide: not shown
~10 µM | ~50 µM | phosphinate-containing triple-helical peptide-amphiphile f4, C6-(Gly-Pro-Hyp)5-Gly-Pro-Pro-[Gly~Val]-Val-Gly-Glu-Gln-(Gly-Pro-Hyp)5-NH2 (N-terminal hexanoic acid (C6); Hyp (4-hydroxyproline) at 3, 6, 9, 12, 15, 27, 30, 33, 36, 39 (written P in letters); Gly19-Val20 peptide bond replaced by phosphinate psi{PO2H-CH2}; hypothesised phosphino Gly-(L)Val analog; C-terminal amide, One of two RP-HPLC-separated diastereomers of the C6-lipidated peptide; Triple helix of three identical strands by self-assembly; also called Peptide-amphiphile 2; peptide-amphiphile mimic) peptide: not shown

Reference: US20080125354A1 (FLORIDA ATLANTIC UNIVERSITY, published 2008)
